Data from US20160355587A1 (CYTOMX THERAPEUTICS, published 2016).
Residue numbers refer to the chain shown, from its start.

T1: human CD166 protein (human, UniProt Q13740 28-526, limits assumed)
T1 construct: Isolated human CD166 protein coated on ELISA plates; also called ALCAM
T1 sequence (looked up): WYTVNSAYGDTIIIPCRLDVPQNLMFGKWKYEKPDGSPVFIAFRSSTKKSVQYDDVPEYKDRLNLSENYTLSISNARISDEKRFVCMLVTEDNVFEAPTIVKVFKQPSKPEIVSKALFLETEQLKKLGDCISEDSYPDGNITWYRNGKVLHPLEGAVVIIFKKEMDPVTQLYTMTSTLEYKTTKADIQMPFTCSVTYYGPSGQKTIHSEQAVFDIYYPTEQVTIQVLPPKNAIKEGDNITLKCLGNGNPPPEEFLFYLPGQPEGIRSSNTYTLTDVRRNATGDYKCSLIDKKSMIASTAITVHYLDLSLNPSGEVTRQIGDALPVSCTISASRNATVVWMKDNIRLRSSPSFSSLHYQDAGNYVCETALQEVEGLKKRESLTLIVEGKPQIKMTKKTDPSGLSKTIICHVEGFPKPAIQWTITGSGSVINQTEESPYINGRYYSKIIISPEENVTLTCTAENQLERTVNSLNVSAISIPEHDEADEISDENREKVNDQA

B1: CD166-16522-2001 (antibody)
chain 1: QITLKESGPTLVKPTQTLTLTCTFSGFSLSTYGMGVGWIRQPPGKALEWLANIWWSEDKHYSPSLKSRLTITKDTSKNQVVLTMTNMDPVDTATYYCVQIDYGNDYAFTYWGQGTLVTVSS
chain 2: QGQSGQGLEGWCLHPLCLWGAGGGGSSGGSISSGLLSGRSDNHGGGSDIVMTQSPLSLPVTPGEPASISCRSSKSLLHSNGITYLYWYLQKPGQSPQLLIYQMSNLASGVPDRFSGSGSGTDFTLKISRVEAEDVGVYYCAQNLELPYTFGQGTKLEIK
B2: CD166-7614.7-2001 (antibody)
chain 1: B1 chain 1
chain 2: QGQSGQGLCHPLALSAWESCSSGGGSSGGSISSGLLSGRSDNHGGGSDIVMTQSPLSLPVTPGEPASISCRSSKSLLHSNGITYLYWYLQKPGQSPQLLIYQMSNLASGVPDRFSGSGSGTDFTLKISRVEAEDVGVYYCAQNLELPYTFGQGTKLEIK
B3: CD166-7614.12-2001 (antibody)
chain 1: B1 chain 1
chain 2: QGQSGQGHPLVLGGGSSGGSISSGLLSGRSDNHGGGSDIVMTQSPLSLPVTPGEPASISCRSSKSLLHSNGITYLYWYLQKPGQSPQLLIYQMSNLASGVPDRFSGSGSGTDFTLKISRVEAEDVGVYYCAQNLELPYTFGQGTKLEIK
B4: CD166-7614.10-2001 (antibody)
chain 1: B1 chain 1
chain 2: B2 chain 2 with A13V, E18A
B5: CD166-7614.9-2001 (antibody)
chain 1: B1 chain 1
chain 2: B2 chain 2 with A13V, W17A
B6: CD166-7614.11-2001 (antibody)
chain 1: B1 chain 1
chain 2: QGQSGQGCHPLVLSAWESCGGGSSGGSISSGLLSGRSDNHGGGSDIVMTQSPLSLPVTPGEPASISCRSSKSLLHSNGITYLYWYLQKPGQSPQLLIYQMSNLASGVPDRFSGSGSGTDFTLKISRVEAEDVGVYYCAQNLELPYTFGQGTKLEIK
B7: CD166-16522.17-2001 (antibody)
chain 1: B1 chain 1
chain 2: B1 chain 2 with P15A
B8: CD166-16522.16-2001 (antibody)
chain 1: B1 chain 1
chain 2: B1 chain 2 with H14A
B9: CD166-7614.5-2001 (antibody)
chain 1: B1 chain 1
chain 2: B2 chain 2 with P11A, A13V
B10: CD166-16522.15-2001 (antibody)
chain 1: B1 chain 1
chain 2: B1 chain 2 with L13A
B11: CD166-7614.13-2001 (antibody)
chain 1: B1 chain 1
chain 2: QGQSGQGHPLGGGSSGGSISSGLLSGRSDNHGGGSDIVMTQSPLSLPVTPGEPASISCRSSKSLLHSNGITYLYWYLQKPGQSPQLLIYQMSNLASGVPDRFSGSGSGTDFTLKISRVEAEDVGVYYCAQNLELPYTFGQGTKLEIK
B12: CD166-16522.14-2001 (antibody)
chain 1: B1 chain 1
chain 2: B1 chain 2 with W11A
B13: CD166-M9 antibody (mouse anti-CD166 Mab M9) (antibody, V domains shown)
VH: QVTLKESGPGILQPSQTLSLTCSFSGFSLSTYGMGVGWIRQPSGKGLEWLANIWWSEDKHYNSALKSRLTISKDTSNNQVFLKISSVDTADTATYYCVQIDYGNDYAFTYWGQGTLVTVSA
VL: DIVMTQAAFSNPVTLGTSASISCRSSKSLLHSNGITYLYWYLQKPGQSPQLLIYQMSNLASGVPDRFSSSGSGTDFTLRISRVEAEDVGVYYCAQNLELPYTFGGGTKLEIKR
notes: Obtained by mouse hybridoma technology; also called M9 mAb; muM9
B14: CD166-M9_vK2/HcC (antibody, V domains shown)
VH: B1 chain 1 with M84I, M87V
VL: DIVMTQSPLSLPVTPGEPASISCRSSKSLLHSNGITYLYWYLQKPGQSPQLLIYQMSNLASGVPDRFSSSGSGTDFTLKISRVEAEDVGVYYCAQNLELPYTFGQGTKLEIK
notes: Humanized M9
B15: CD166-M9_vK3b/HcC (antibody, V domains shown)
VH: B1 chain 1 with M84I, M87V
VL: B14 VL with K27Q, L59R
notes: Humanized M9
B16: CD166-M9_vK3b/HcB (antibody, V domains shown)
VH: B1 chain 1
VL: B14 VL with K27Q, L59R
notes: Humanized M9
B17: CD166-M9_vK3a/HcC (antibody, V domains shown)
VH: B1 chain 1 with M84I, M87V
VL: B14 VL with K27Q, L59R, S69G
notes: Humanized M9
B18: CD166-M9_vk3a/HcB (antibody, V domains shown)
VH: B1 chain 1
VL: B14 VL with K27Q, L59R, S69G
notes: Humanized M9

biological target: T1, human CD166 protein; test: ELISA, human CD166 protein coated; apparent Kd

Kd	Binder
424 nM	B1
619 nM	B2
332 nM	B3
685 nM	B4
534 nM	B5
544 nM	B6
61.6 nM	B7
47.4 nM	B8
495 nM	B9
448 nM	B10
77.7 nM	B11
422 nM	B12

biological target: T1, human CD166 protein; test: ELISA, human CD166 protein coated; positive control
Protocol: The antibody CD166-M9 antibody comprising VH of SEQ ID NO: 119, VL of SEQ ID NO: 120 was used a positive control, and an isotype control antibody was used a negative control.
Using a standard ELISA protocol, human CD166 protein was absorbed to ELISA plates and subsequently incubated with the indicated concentration of antibody. Bound antibody was detected with an anti-human FAB-peroxidase secondary.

binding result	Binder
binds	B13

biological target: T1, human CD166 protein; test: ELISA; relative to parental CD166 M9 vk1/HcB

Fold Increase in Kd	Binder
95 fold	B1
139 fold	B2
75 fold	B3
154 fold	B4
120 fold	B5
123 fold	B6
14 fold	B7
11 fold	B8
112 fold	B9
101 fold	B10
18 fold	B11
95 fold	B12

biological target: T1, human CD166 protein; test: ELISA, human CD166 protein coated, anti-human FAB-peroxidase

binding result	Binder
binds	B14
binds	B15
binds	B16
binds	B17
binds	B18
